Measurements taken from US20250161474A1, “ANTIBODY-DRUG CONJUGATES TARGETING EGFR/C-MET AND PREPARATION METHODS AND USES THEREOF” (Sichuan Kelun-Biotech Biopharmaceutical Co., Ltd., priority 2023, published 2025).

How the values were obtained:
[1] = Hydrophilicity of ADCs (HIC, TSKgel Butyl-NPR); assay type: physicochemical; settings: for Hydrophobicity value: (RT sample − RT hydrophilic control)/(RT hydrophobic control − RT hydrophilic control), Tagitanlimab = 0, Sacituzumab = 1; for Retention time: HIC, TSKgel Butyl-NPR column, 30°C, smaller = more hydrophilic
Experimental: The column temperature was 30° C., the detection wavelength was 280 nm, and the flow rate was: 0.5 mL/min, mobile phase A: 1.5 mol/L (NH4)2SO4; mobile phase B: 25 mmol/L Na2HPO4, pH=7.0, 25% isopropanol alcohol (IPA). For analysis, a test sample of ADC was diluted to 1 mg/mL solution using the diluent 0.75 mol/L (NH4)2SO4 to provide a test solution. The hydrophilic control antibody was Tagitanlimab and the hydrophobic control antibody was Sacituzumab. Control antibodies were produced by Sichuan Kelun-Biotech Biopharmaceutical Co., Ltd. using the diluent to make a 1 mg/mL test solution as the system suitability solution. […] After testing, the hydrophobicity value of the test sample was calculated based on the control sample. The calculation formula was: (Retention time of test sample−Retention time of hydrophilic control)/(Retention time of hydrophobic control−Retention time of hydrophilic control).

[2] = Hydrophilicity of bispecific antibodies (HIC, TSKgel Butyl-NPR); assay type: physicochemical; settings: for Hydrophobicity value: (RT sample − RT hydrophilic control)/(RT hydrophobic control − RT hydrophilic control), Tagitanlimab = 0, Sacituzumab = 1; for Retention time: HIC, TSKgel Butyl-NPR column, 30°C, smaller = more hydrophilic
Experimental: Column temperature: 30° C., detection wavelength: 280 nm, flow rate: 0.5 ml/min, mobile phase A: 1.5 mol/L (NH4)2SO4, mobile phase B: 25 mmol/L Na2HPO4, pH=7.0, 25% IPA. A suitable amount of the test sample was diluted with diluent (0.75 mol/L (NH4)2SO4) to make a solution of 1.0 mg/ml as the test sample solution. The control antibodies were Tagitanlimab as a hydrophilic control (disclosed in WO2017148424) and Sacituzumab as a hydrophobic control (disclosed in WO2019114666). (Both antibodies are produced by Kelun-Biotech.) Each of the control antibodies were diluted with the diluent to make a solution of 1.0 mg/ml as the system suitability solution. About […] of sample was injected and analyzed in gradient elution: 0-3 min, maintaining mobile phase A of 95% and mobile phase B of 5%; 3-40 min, mobile phase B from 5% to 100%; 40-45 min, maintaining mobile phase A of 95% and mobile phase B of 5%. The hydrophobicity value of the test sample was calculated according to the control sample with the formula: (retention time of the test sample−retention time of the hydrophilic control)/(retention time of the hydrophobic control−retention time of the hydrophilic control), and the smaller the retention time and hydrophobicity value, the better the hydrophilicity of the antibody.

Substance	Hydrophobicity value [1]	Retention time [1]	Hydrophobicity value [2]	Retention time [2]
Sacituzumab	1.00	19.00 min	1.00	19.001 min
Tagitanlimab	0.00	11.01 min	0.00	11.009 min
